Patent US20200138870A1, “RECREATION OF PANCREATIC NICHE ALLOWS FOR NOVEL METHODS FOR HUMAN, MATURE BETA DERIVATION FROM PLURIPOTENT STEM CELLS” (Baylor College of Medicine, priority 2016, published 2020)
Several values for one entry are separate records, joined by “and”; a condition that tells them apart may be missing. Equal values may be shown once.

Assays:
Type in all cases: cell-based, human
hESC-derived EPs [1] = assay: qPCR-based gene expression analysis of WNT5A-treated EPs
Procedure: Total RNA was isolated using TRIzol (Thermo Fisher Scientific) according to the manufacturer's protocol. DNAase (Qiagen) treatment was performed to remove genomic DNA. cDNA was synthesized using iScript (Biorad) by using […] of RNA. For qPCR, KAPA SYBR FAST (Kapa Biosystems) and Connect CFX light cycler (Biorad) for PCR reaction (<40 cycles were used). Primers were designed using qPrimerDepot in such way that the PCR product spans across exons junction. Primer specificity was checked using CFX manager software v3.1 […] and PCR product electrophoresis. Threshold data were analyzed by CFX manager software v3.1 using Comparative Ct relative quantitation method with TBP as internal control.

EPs = assay: Proliferation by phospho-histone H3 (pH3) staining after WNT5A treatment
Procedure: (§1) Cells were incubated with 5% donkey serum (Jackson ImmunoResearch Laboratories) in PBST (PBS+0.1% Triton-X) for 30 min to avoid nonspecific binding of the antibody and to permeabilize the cells. Primary antibodies, diluted in 5% donkey serum in PBST, were then added and incubated at 4° C. overnight with shaking. After primary antibody incubation, cells were washed 3 times with PBST and secondary antibodies conjugated with Alexa-Fluor Dyes (Jackson ImmunoResearch Laboratories) and diluted in 5% donkey serum in PBST were added to the cells for 30 min at RT. Then, cells were thrice washed with PBST and nuclei were stained with Dapi (Roche Diagnostics). For imaging, Leica DMI6000 or confocal Leica TCS SPE was used. Images were initially processed by LAS X software and then further analyzed and quantified using ImageJ software (NIH, W Rasband, http://rsb.info.nih.gov/ij) using cell counter plug-in. Typically, at least 5 randomly selected images were counted per condition.

c-JUN = assay: p-c-JUN immunofluorescence in EPs; conditions: WNT5A short-term treatment (24h in FIG. 6G)
Procedure: as §1

AP-1 = assay: Dual-pathway multicolor luciferase assay, AP-1 reporter; conditions: 500 ng/ml WNT5A, after 24h
Excerpt: The dual-pathway luciferase reporter vector was generated using the GoldenBraid2.0 Assembly Platform (Sarrion-Perdigones et al., 2011; Sarrion-Perdigones et al., 2013). Briefly, transcriptional units comprising the promoter elements, the CDS of the corresponding luciferase and the bovine growth hormone terminator were first assembled, and then these were latter combined in successive rounds of assembly to build the multigenic vector used in this assay. For the multicolor luciferase assay, H1-derived EPs were first dissociated into 96-well plates using method previously described and incubated overnight to allow cell attachment. […] At the determined harvesting point, culture media was removed and wells were washed with PBS. […] 10 μL of LARII reagent was added with the built-in injectors and after 2 seconds, the total light and the BP filtered light emitted by the FLuc and RedF mixture were measured for 1 second. Finally, 15 μL of Stop & Glo® reagent were injected and after 4 seconds the emitted light by Renilla luciferase was measured. The activity corresponding to FLuc and RedF that were simultaneously measured after the LARII reagent was added were calculated according to the method proposed by Nakayima et al (Nakajima et al., 2005) that is adjusted to this particular assay and explained in FIG. 7D.

[2] = test system: canonical β-catenin-dependent pathway; assay: TOPFLASH reporter assay; conditions: 100 or 500 ng/ml WNT5A, 3 days
Procedure: For TOPFLASH reporter assay, 80,000 EPs were transfected with 0.5 μg of TOPFLASH (Addgene #12456) or FOPFLASH (Addgene #12457) from Dr. Randall Moon, together with 0.25 μg pRLTK using Lipofectamine 2000 (Invitrogen) for 48h. Cells were then treated with CHIR99021 (as positive control), DMSO (mock control) or WNT5A for 3 days before collecting the samples. Luciferase assay was performed using Dual luciferase assay system (Promega) which Luciferase and Renilla signal were measured by TD20/20 Luminometer (Turner designs).

hESC-derived EPs [3] = assay: Growth factor treatment of hESC-derived EPs for 3 days, immunofluorescence quantification of marker-positive cells
Procedure: hESC, ISL1-EGFP Hues8 and H1, were maintained under a feeder-free system on Geltrex (Invitrogen) in TeSR-E8 media (Stemcell Technologies). Cells were passaged at 70-80% confluence using TrypLE (Invitrogen). After dissociation, cells were seeded in TeSR-E8 media+10 μM Y-27632 for 24h. Differentiation was started when cells were 90% confluent. The following media and growth factors/small molecules (see also Table 3) were used: Day1: MCDB-131 media with 0.1% BSA+10 mM glucose+ActivinA and CHIR99021. Day2-3: MCDB-131 media+0.1% BSA+10 mM glucose+ActivinA. Day4-5: MCDB-131+0.1% BSA, 10 mM glucose, VitC+KGF. Day6-9: MCDB-131 2% BSA+5.5 mM glucose+Vit.C+ITS (Invitrogen)+ActivinA+KGF+RA+SANT-1+Noggin. Day10-12: MCDB-131+2% BSA+5.5 mM glucose+VitC+ITS+SANT-1+Noggin+PdBU. Day13-15: MCDB-131+2% BSA+5.5 mM glucose+VitC+ITS+Noggin+AlK5i. EPs were dissociated and seeded as 25,000 cells/well on Geltrex-coated 96-well plates in DMEM media (Invitrogen) with B27 Supplement (Thermo Fisher Scientific), later called B27 media, supplemented with 10 µM Y-27632 for 24h. Growth factors (Table 3) were added to B27 media, at two concentrations, and tested on EPs for 3 days. After 3 days, cells were PBS washed, fixed with 4% PFA/PBS for 20 min at room temperature (RT), washed twice with PBS and stained.
as §1

AP-1 activity (in words) (AP-1): activates
B1: WNT5A: secreted growth factor from the human pancreatic niche (R&D), used at 100 or 500 ng/ml (protein)
chain: IIGAQPLCSQLAGLSQGQKKLCHLYQDHMQYIGEGAKTGIKECQYQFRHRRWNCSTVDNTSVFGRVMQIGSRETAFTYAVSAAGVVNAMSRACREGELSTCGCSRAARPKDLPRDWLWGGCGDNIDYGYRFAKEFVDARERERIHAKGSYESARILMNLHNNEAGRRTVYNLADVACKCHGVSGSCSLKTCWLQLADFRKVGDALKEKYDSAAAMRLNSRGKLVQVNSRFNSPTTQDLVYIDPSPDYCVRNESTGSLGTQGRLCNKTSEGMDGCELMCCGRGYDQFKTVQTERCHCKFHWCCYVKCKKCTEIVDQFVCK
GCG expression compared to untreated cells (in words) (hESC-derived EPs [1]; 5-day WNT5A-treated cells): decreased | INS, CHGA, ONECUT1 and PCSK2 expression compared to untreated cells (in words) (hESC-derived EPs [1]; 5-day WNT5A-treated cells): increased | BMP3, BMP4 and BMP6 expression by qPCR (in words) (hESC-derived EPs [1]; 5 day-WNT5A treatment): downregulation | BMP inhibitor BMPER expression by qPCR (in words) (hESC-derived EPs [1]; 5 day-WNT5A treatment): upregulation | effect in EP proliferation (in words) (EPs; 3 days of WNT5A treatment): modest effect | pH3+ cells (EPs; 3 days of WNT5A treatment (1% in control)): 2% | increase in p-c-JUN (number of c-JUN+ cells) compared to untreated control (c-JUN): 9 fold and 6 fold | activity of β-catenin-dependent pathway, TOPFLASH (in words) [2]: did not significantly activate or antagonize | number of INS+ cells (hESC-derived EPs [3]; 100 ng/ml of WNT5A (30% in B27)): 39% | number of INS+ cells (hESC-derived EPs [3]; 500 ng/ml WNT5A (30% in B27)): 60% | decrease in the number of GCG+ cells (hESC-derived EPs [3]; 3-day EP treatment, vs untreated control): 3 fold | average increase in number of cells positive for all test markers (hESC-derived EPs [3]; 3 days treatment of EPs): 5 fold | numbers of ISL1-eGFP, CHGA+, INS+ and C-peptide+ cells over untreated controls (in words) (hESC-derived EPs [3]; 3 days treatment of EPs): increased | number of INS+ cells among all factors and combinations tested (in words) (hESC-derived EPs [3]; WNT5A in different combinations at 500 ng/ml, 3 days): consistently and most significantly increased | fold increase in number of ins+ cell generate from hESCs (hESC-derived EPs [3]; growth factors alone or in combination): 6 fold
